Reference: US20110152202A1 (STC UNM, published 2011)
Where a chain is given by its changes, count along the chain named. Names and notes keep the numbering of the source. Values belong to the binder of their own block, whether it stands above or below them.

Legend:
human FcγRI = target: T1, human FcγRI (human, UniProt P12314 16-288, limits assumed); assay: SPR, CRP as analyte on immobilized human FcγR
T1 construct: Immobilized on the SPR chip

human FcγRIII = human FcγRIII (human); assay: SPR, CRP as analyte on immobilized human FcγR
[1] = target: T2, mouse FcγRI on mouse peritoneal macrophages (from FcγRIIb-/- mice) (mouse, UniProt P26151 25-404); assay: two-color flow cytometry of CRP bound to mouse peritoneal macrophages expressing FcγRI (from FcγRIIb-/- mice); panel title 'Binding to FcγRI'
T2 construct: whole, on cells; also called FcγRI on mouse macrophages
T2 sequence (looked up): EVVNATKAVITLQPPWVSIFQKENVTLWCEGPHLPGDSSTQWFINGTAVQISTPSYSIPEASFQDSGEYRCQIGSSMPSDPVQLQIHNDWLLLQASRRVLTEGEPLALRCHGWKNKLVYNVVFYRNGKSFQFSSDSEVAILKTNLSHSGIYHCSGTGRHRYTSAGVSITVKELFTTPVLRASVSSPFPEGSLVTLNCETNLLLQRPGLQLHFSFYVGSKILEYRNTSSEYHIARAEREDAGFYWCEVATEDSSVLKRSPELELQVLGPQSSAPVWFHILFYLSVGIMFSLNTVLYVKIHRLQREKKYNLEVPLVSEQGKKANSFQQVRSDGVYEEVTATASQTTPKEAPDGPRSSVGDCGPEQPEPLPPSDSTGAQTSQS
Text: A. Macrophages expressing FcγRI (from FcγRIIb^{-/-} mice). B. Macrophages expressing FcγRIIb (from FcR γ-chain^{-/-} mice).

T1 sequence (P12314 16-288 limits assumed): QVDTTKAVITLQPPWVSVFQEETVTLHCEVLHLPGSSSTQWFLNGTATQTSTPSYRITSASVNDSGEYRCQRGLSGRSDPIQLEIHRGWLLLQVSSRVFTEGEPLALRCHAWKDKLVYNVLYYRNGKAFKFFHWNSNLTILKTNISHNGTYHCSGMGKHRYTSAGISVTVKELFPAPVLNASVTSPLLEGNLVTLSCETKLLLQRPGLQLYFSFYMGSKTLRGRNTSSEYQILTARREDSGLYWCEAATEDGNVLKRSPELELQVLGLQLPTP
human FcγRIII (human), sequence (O75015 17-200): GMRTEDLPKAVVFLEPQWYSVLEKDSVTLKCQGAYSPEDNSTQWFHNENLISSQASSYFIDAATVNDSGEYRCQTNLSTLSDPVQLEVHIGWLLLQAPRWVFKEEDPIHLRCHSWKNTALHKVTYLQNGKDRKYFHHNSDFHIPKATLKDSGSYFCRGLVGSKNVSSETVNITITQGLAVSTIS

Kd (human FcγRI): 3.2 µM | Kd (human FcγRIII): 4.1 µM | binding result [1]: binds
B1: C-reactive protein (human CRP) (ligand)
chain: QTDMSRKAFVFPKESDTSYVSLKAPLTKPLKAFTVCLHFYTELSSTRGYSIFSYATKRQDNEILIFWSKDIGYSFTVGGSEILFEVPEVTVAPVHICTSWESASGIVEFWVDGKPRVRKSLKKGYTVGAEASIILGQEQDSFGGNFEGSQSLVGDIGNVNMWDFVLSPDEINTIYLGGPFSPNVLNWRALKYEVQGEVFTKPQLWP
notes: also called purified human CRP; native CRP

Kd (human FcγRI): 3.5 µM | binding result [1]: binds
B2: Y175L mutant CRP (tyrosine 175 replaced by leucine) (ligand)
chain: B1 chain with Y175L
notes: It has 206 amino acids; The protein is recombinant; also called Y175L CRP; recombinant Y175L mutant CRP
